Experimental data: the supplement of paper PMC7877785
± gives the uncertainty stated by the source.

Test: self-splicing fitness, log relative to wild type (ln ratio); higher = more splicing; Tetrahymena group I intron in knt gene, E. coli kanamycin selection, DiMSum; sequences stand for … in CUCUCU…GGAGGGAAAAGUUAUCAGGCAUGCACCUGGUAGCUAGUCUUUAAACCAAUAGAUUGCAUCGGUUUAAAAGGCAAGACCGUCAAAUUGCGGGAAAGGGGUCAACAGCCGUUCAGUACCAAGUCUCAGGGGAAACUUUGAGAUGGCCUUGCAAAGGGUAUGGUAAUAAGCUGACGGACAUGGUCCUAACCACGCAGCCAAGUCCUAAGUCAACAGAUCUUCUGUUGAUAUGGAUGCAGUUCACAGACUAAAUGUCGGUCGGGGAAGAUGUAUUCUUCUCAUAAGAUAUAGUCGGACCUCUCCUUAAUGGGAGCUAGCGGAUGAAGUGAUGCAACACUGGAGCCGCUGGGAACUAAUUUGUAUGCGAAAGUAUAUUGAUUAGUUUUGGAGUACUCGUGGUCG
Procedure, shortened: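 Fitness was computed with DiMSum as the error-weighted combination of replicate fold changes, kanamycin versus none, each normalised to wild type. The library randomised all eight intron nucleotides of the P1ex region, with the intron placed in the knt kanamycin-resistance gene on pET-22b(+) in E. coli BL21(DE3). Six replicate transformations were grown overnight at 37°C or 30°C on LB agar with or without 25 μg/mL kanamycin, plus 100 μg/mL carbenicillin, 50 μM IPTG and 0.2% rhamnose. Pooled colonies were amplicon-sequenced on an Illumina HiSeq 2500.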

Sequence | self-splicing fitness (ln) (30 °C) | self-splicing fitness (ln) (37 °C)
GAUCAGCAAUAUUACGCAGA | -2.13 ± 0.14 | -0.891 ± 0.16
GAUCAGCAAUAUUACGCAGU | -1.74 ± 0.083 | -0.88 ± 0.12
GAUCAGCAAUAUUACGCCAG | -3.32 ± 0.3 | -1.93 ± 0.31
GAUCAGCAAUAUUACGCCCA | -0.563 ± 0.2 | -0.558 ± 0.28
GAUCAGCAAUAUUACGCCGC | -2.29 ± 0.44 | -1.19 ± 0.28
GAUCAGCAAUAUUACGCGCG | -0.222 ± 0.14 | 0.0103 ± 0.15
GAUCAGCAAUAUUACGCUGG | -3.48 ± 0.21 | -3.18 ± 0.27
GAUCAGCAAUAUUACGGAAG | -2.38 ± 0.1 | -0.761 ± 0.091
GAUCAGCAAUAUUACGGGUA | -0.0547 ± 0.089 | -0.665 ± 0.086
GAUCAGCAAUAUUACGGUAA | -0.559 ± 0.075 | 0.194 ± 0.07
GAUCAGCAAUAUUACGGUAU | -0.247 ± 0.068 | -0.46 ± 0.078
GAUCAGCAAUAUUACGGUUC | -2.83 ± 0.23 | -0.31 ± 0.14
GAUCAGCAAUAUUACGGUUU | -0.544 ± 0.074 | -0.154 ± 0.098
GAUCAGCAAUAUUACGUACA | -0.607 ± 0.12 | 0.177 ± 0.15
GAUCAGCAAUAUUACGUAGA | -0.569 ± 0.08 | -0.158 ± 0.14
GAUCAGCAAUAUUACGUAUG | -0.935 ± 0.084 | -0.276 ± 0.097
GAUCAGCAAUAUUACGUGAC | -1.62 ± 0.094 | -1.63 ± 0.12
GAUCAGCAAUAUUACGUGCU | -3.41 ± 0.15 | -2.2 ± 0.16
GAUCAGCAAUAUUACGUGGU | -4.81 ± 0.27 | -2.15 ± 0.13
GAUCAGCAAUAUUACGUGUC | -2.74 ± 0.11 | -2.19 ± 0.17
GAUCAGCAAUAUUACGUUAA | -1.23 ± 0.076 | -0.776 ± 0.084
GAUGAGCAAUAUUACGAAUG | -2.71 ± 0.21 | -2.67 ± 0.34
GAUGAGCAAUAUUACGACCA | -3.85 ± 0.35 | -3.8 ± 0.39
GAUGAGCAAUAUUACGCAUC | -2.56 ± 0.25 | -2.32 ± 0.28
GAUGAGCAAUAUUACGCCAU | -2.56 ± 0.14 | –

Sequence | self-splicing fitness (ln) (30 °C) | self-splicing fitness (ln) (37 °C)
GAUGAGCAAUAUUACGCGUA | -1.96 ± 0.29 | -1.85 ± 0.33
GAUGAGCAAUAUUACGGAUC | -2.36 ± 0.23 | -1.78 ± 0.19
GAUGAGCAAUAUUACGGCUU | -2.34 ± 0.14 | -1.12 ± 0.14
GAUGAGCAAUAUUACGGGAC | – | -3.23 ± 0.4
GAUGAGCAAUAUUACGGGGG | -4.46 ± 0.34 | -1.44 ± 0.25
GAUGAGCAAUAUUACGUAUU | -3.83 ± 0.34 | -3.78 ± 0.36
GAUUAGCAAUAUUACGAAUC | -4.13 ± 0.37 | -1.82 ± 0.31
GAUUAGCAAUAUUACGACCC | -0.91 ± 0.24 | 0.12 ± 0.24
GAUUAGCAAUAUUACGAGCC | -0.73 ± 0.31 | -1.4 ± 0.38
GAUUAGCAAUAUUACGAUCU | -0.776 ± 0.2 | -2.2 ± 0.38
GAUUAGCAAUAUUACGCAAA | -2.19 ± 0.18 | -2.24 ± 0.19
GAUUAGCAAUAUUACGCCCC | -1.52 ± 0.46 | -0.314 ± 0.48
GAUUAGCAAUAUUACGCCGC | -3.47 ± 0.24 | -2.28 ± 0.21
GAUUAGCAAUAUUACGCCGG | -2.88 ± 0.45 | -1.96 ± 0.41
GAUUAGCAAUAUUACGCGGG | -2.31 ± 0.12 | -2.53 ± 0.18
GAUUAGCAAUAUUACGCGGU | -3.5 ± 0.47 | -3.43 ± 0.33
GAUUAGCAAUAUUACGCGUG | -1.23 ± 0.091 | 0.595 ± 0.11
GAUUAGCAAUAUUACGCUAG | -1.95 ± 0.17 | -0.989 ± 0.15
GAUUAGCAAUAUUACGCUAU | -2.97 ± 0.41 | –
GAUUAGCAAUAUUACGCUGA | -3.17 ± 0.23 | -2.53 ± 0.27
GAUUAGCAAUAUUACGCUGG | -1.73 ± 0.14 | -1.68 ± 0.22
GAUUAGCAAUAUUACGCUUU | -2.1 ± 0.46 | -1.9 ± 0.33
GAUUAGCAAUAUUACGUAAU | -3.06 ± 0.18 | -0.741 ± 0.12
GAUUAGCAAUAUUACGUAUC | – | -2.77 ± 0.36
GAUUAGCAAUAUUACGUCAU | -2.76 ± 0.24 | -1.79 ± 0.36

Sequence | self-splicing fitness (ln) (30 °C) | self-splicing fitness (ln) (37 °C)
GAUUAGCAAUAUUACGUGGG | -3.52 ± 0.32 | -2.47 ± 0.27
GAUUAGCAAUAUUACGUUUA | -2.9 ± 0.25 | -1.05 ± 0.15
GCAAAGCAAUAUUACGACGC | -1.27 ± 0.082 | -1.2 ± 0.11
GCAAAGCAAUAUUACGAGGC | -3.55 ± 0.34 | -2.77 ± 0.4
GCAAAGCAAUAUUACGAGUU | -2.47 ± 0.11 | -0.891 ± 0.093
GCAAAGCAAUAUUACGAUAA | -1.48 ± 0.086 | -1.14 ± 0.1
GCAAAGCAAUAUUACGCAUA | -1.86 ± 0.14 | -1.43 ± 0.18
GCAAAGCAAUAUUACGCCCG | -1.23 ± 0.22 | -2.06 ± 0.38
GCAAAGCAAUAUUACGCCGG | -2.44 ± 0.17 | -1.71 ± 0.2
GCAAAGCAAUAUUACGCCUU | -2.55 ± 0.23 | -1.04 ± 0.21
GCAAAGCAAUAUUACGCGGC | -3.95 ± 0.21 | -2.43 ± 0.19
GCAAAGCAAUAUUACGCUAU | -2.57 ± 0.23 | -1.06 ± 0.17
GCAAAGCAAUAUUACGCUCC | -3.61 ± 0.34 | -3.03 ± 0.43
GCAAAGCAAUAUUACGGAGC | -3.91 ± 0.34 | -2.07 ± 0.19
GCAAAGCAAUAUUACGGAUU | -0.922 ± 0.067 | -0.799 ± 0.1
GCAAAGCAAUAUUACGGCUC | -0.596 ± 0.062 | 0.305 ± 0.081
GCAAAGCAAUAUUACGGGCA | -1.3 ± 0.085 | -0.907 ± 0.079
GCAAAGCAAUAUUACGGGCC | -2.74 ± 0.13 | -2.03 ± 0.21
GCAAAGCAAUAUUACGUACC | -0.781 ± 0.081 | -0.64 ± 0.12
GCAAAGCAAUAUUACGUAUA | -1.65 ± 0.19 | -1.48 ± 0.19
GCAAAGCAAUAUUACGUCAC | -3.96 ± 0.23 | -2.56 ± 0.44
GCAAAGCAAUAUUACGUCGU | -2.22 ± 0.095 | -2.27 ± 0.15
GCAAAGCAAUAUUACGUUUC | -4.41 ± 0.28 | -3.44 ± 0.23
GCACAGCAAUAUUACGAAAU | -1.63 ± 0.099 | -0.818 ± 0.11
GCACAGCAAUAUUACGAAGU | -1.3 ± 0.11 | -0.941 ± 0.14

Sequence | self-splicing fitness (ln) (30 °C) | self-splicing fitness (ln) (37 °C)
GCACAGCAAUAUUACGAAUA | -1.42 ± 0.13 | -1.09 ± 0.16
GCACAGCAAUAUUACGAGAU | -1.99 ± 0.088 | -0.678 ± 0.081
GCACAGCAAUAUUACGCCGA | -2.19 ± 0.22 | -1.61 ± 0.17
GCACAGCAAUAUUACGCGUG | -3.87 ± 0.2 | -2.35 ± 0.18
GCACAGCAAUAUUACGCUAU | -1.98 ± 0.08 | -0.752 ± 0.086
GCACAGCAAUAUUACGGAAG | -3.04 ± 0.13 | -2.11 ± 0.13
GCACAGCAAUAUUACGGCCG | -2.48 ± 0.17 | -1.75 ± 0.18
GCACAGCAAUAUUACGGGAC | -1.04 ± 0.068 | -1.35 ± 0.098
GCACAGCAAUAUUACGGGAG | -1.96 ± 0.1 | -1.47 ± 0.12
GCACAGCAAUAUUACGGUUU | -0.633 ± 0.047 | 0.145 ± 0.057
GCACAGCAAUAUUACGUACA | -2.07 ± 0.1 | -0.994 ± 0.1
GCACAGCAAUAUUACGUGCU | -3.6 ± 0.1 | -2.75 ± 0.12
GCAGAGCAAUAUUACGAAGG | -4.31 ± 0.46 | -1.42 ± 0.26
GCAGAGCAAUAUUACGAUGA | -1.42 ± 0.14 | -1.07 ± 0.12
GCAGAGCAAUAUUACGAUGG | -1.98 ± 0.098 | -1.65 ± 0.12
GCAGAGCAAUAUUACGCCGU | -1.7 ± 0.15 | -2.65 ± 0.41
GCAGAGCAAUAUUACGCGCG | -2.8 ± 0.17 | -1.49 ± 0.14
GCAGAGCAAUAUUACGCGCU | – | -2.13 ± 0.35
GCAGAGCAAUAUUACGCGGG | -3.58 ± 0.39 | -2.24 ± 0.28
GCAGAGCAAUAUUACGCGUU | -1.48 ± 0.11 | -2.09 ± 0.16
GCAGAGCAAUAUUACGGAAC | – | -0.993 ± 0.17
GCAGAGCAAUAUUACGGCUC | -2.69 ± 0.37 | -1.99 ± 0.46
